Reference: PMC6181919
Values belong to the substance of their own block, whether it stands above or below them.

Key:
[1] = biological target: purified wild-type C-Proα2(I), His tag cleaved (human); assay: AUC; sedimentation equilibrium, 25 °C, 20 mM Bis-Tris propane pH 7, 150 mM NaCl, with 0.5 mM CaCl2; monomer to trimer
[2] = biological target: purified wild-type C-Proα2(I), His tag cleaved (human); assay: AUC; sedimentation equilibrium, 25 °C, 20 mM Bis-Tris propane pH 7, 150 mM NaCl, without Ca^2+; equilibrium constants are of monomer to dimer
[3] = biological target: wild-type, HA-tagged C-Proα1(III) (human); assay: non-reducing SDS-PAGE immunoblot; conditioned media of transfected HEK293 cells, treated with 100 mM iodoacetamide, boiled in SDS, 12% gel, non-reducing; denaturing, shows disulfide-linked species only; two-colour detection of HA and FLAG
[4] = biological target: FLAG-tagged Ser1169Cys (S2C) C-Proα2(I) (human); assay: co-IP; sequential: conditioned media of co-transfected HEK293 cells, anti-FLAG beads (C-Proα2(I)), FLAG peptide elution, then HA beads (C-Proα1(I)); non-reducing, washes with 50 mM EDTA to deplete Ca^2+, 4 °C; reducing SDS-PAGE immunoblot; ratio by quantified blots
[5] = biological target: purified S2C (Ser1169Cys) C-Proα2(I), His tag cleaved (human); assay: AUC; sedimentation equilibrium, 25 °C, 20 mM Bis-Tris propane pH 7, 150 mM NaCl, with 0.5 mM CaCl2; monomer to trimer
[6] = biological target: purified S2C (Ser1169Cys) C-Proα2(I), His tag cleaved (human); assay: AUC; sedimentation equilibrium, 25 °C, 20 mM Bis-Tris propane pH 7, 150 mM NaCl, without Ca^2+; equilibrium constants are of monomer to dimer
[7] = biological target: FLAG-tagged Ser1169Cys (S2C) C-Proα2(I) (human); assay: non-reducing SDS-PAGE immunoblot; wild-type C-Proα1(I) and S2C C-Proα2(I) co-expressed at 1:1, 2:1 and 5:1; media depleted by HA immunoprecipitation, unbound fraction FLAG-immunoprecipitated, elutions on a non-reducing SDS-PAGE gel
[8] = biological target: FLAG-tagged Ser1169Cys (S2C) C-Proα2(I) (human); assay: non-reducing SDS-PAGE immunoblot; conditioned media of transfected HEK293 cells, treated with 100 mM iodoacetamide, boiled in SDS, 12% gel, non-reducing; denaturing, shows disulfide-linked species only; two-colour detection of HA and FLAG
[9] = biological target: wild-type, FLAG-tagged C-Proα2(I) (C-propeptide domain of human Colα2(I)) (human); assay: co-IP; sequential: conditioned media of co-transfected HEK293 cells, anti-FLAG beads (C-Proα2(I)), FLAG peptide elution, then HA beads (C-Proα1(I)); non-reducing, washes with 50 mM EDTA to deplete Ca^2+, 4 °C; reducing SDS-PAGE immunoblot; ratio by quantified blots
wild-type, FLAG-tagged C-Proα2(I) (C-propeptide domain of human Colα2(I)) (human), sequence (P08123 23-1366): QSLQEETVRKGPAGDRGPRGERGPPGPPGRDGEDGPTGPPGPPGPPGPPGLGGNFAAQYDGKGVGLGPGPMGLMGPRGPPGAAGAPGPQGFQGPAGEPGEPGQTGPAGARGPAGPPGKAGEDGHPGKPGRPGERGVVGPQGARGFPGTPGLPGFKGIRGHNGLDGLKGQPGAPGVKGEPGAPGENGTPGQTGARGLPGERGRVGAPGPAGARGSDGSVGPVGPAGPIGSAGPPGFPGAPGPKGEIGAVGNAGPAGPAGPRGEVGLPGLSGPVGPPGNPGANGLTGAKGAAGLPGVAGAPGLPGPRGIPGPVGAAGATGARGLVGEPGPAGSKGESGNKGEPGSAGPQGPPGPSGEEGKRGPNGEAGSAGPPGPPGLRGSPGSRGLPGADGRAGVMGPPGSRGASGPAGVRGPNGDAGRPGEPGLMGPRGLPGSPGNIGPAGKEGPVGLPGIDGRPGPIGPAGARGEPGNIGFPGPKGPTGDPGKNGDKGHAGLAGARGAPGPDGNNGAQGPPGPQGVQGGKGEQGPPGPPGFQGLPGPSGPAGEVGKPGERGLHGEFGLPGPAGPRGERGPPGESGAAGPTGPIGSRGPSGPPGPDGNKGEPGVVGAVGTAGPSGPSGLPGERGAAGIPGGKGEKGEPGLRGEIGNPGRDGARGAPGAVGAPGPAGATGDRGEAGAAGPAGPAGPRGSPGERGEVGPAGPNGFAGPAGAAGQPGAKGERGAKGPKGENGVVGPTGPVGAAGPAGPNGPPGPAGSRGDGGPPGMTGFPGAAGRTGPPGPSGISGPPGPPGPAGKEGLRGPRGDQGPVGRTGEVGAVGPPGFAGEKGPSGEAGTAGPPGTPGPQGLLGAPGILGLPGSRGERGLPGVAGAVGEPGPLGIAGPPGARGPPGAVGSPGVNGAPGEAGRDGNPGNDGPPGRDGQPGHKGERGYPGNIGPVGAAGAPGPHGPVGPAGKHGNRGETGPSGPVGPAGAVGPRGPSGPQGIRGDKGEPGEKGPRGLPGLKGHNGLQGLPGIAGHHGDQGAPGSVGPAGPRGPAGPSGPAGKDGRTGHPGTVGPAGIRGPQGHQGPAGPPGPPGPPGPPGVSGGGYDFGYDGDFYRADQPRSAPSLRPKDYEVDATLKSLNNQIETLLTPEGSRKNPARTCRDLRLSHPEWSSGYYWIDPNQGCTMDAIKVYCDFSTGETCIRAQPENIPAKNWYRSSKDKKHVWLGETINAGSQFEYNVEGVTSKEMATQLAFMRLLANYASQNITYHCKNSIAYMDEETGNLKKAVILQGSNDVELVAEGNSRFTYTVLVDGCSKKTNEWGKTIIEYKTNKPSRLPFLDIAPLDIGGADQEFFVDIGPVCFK

stoichiometry N [1]: 3
Ka [2]: 6500 M⁻¹
stoichiometry N [2]: 2
Substance: purified wild-type C-Proα2(I), His tag cleaved (domain or fragment)

stoichiometry N (C-Proα1(I):C-Proα2(I)) [4]: 0.5
Substance: HA-tagged Cys1265Ser (C2S) C-Proα1(I) (from UniProt P02452 1219-1464) (domain or fragment)

stoichiometry N [5]: 3
stoichiometry N [6]: 3
Substance: purified S2C (Ser1169Cys) C-Proα2(I), His tag cleaved (domain or fragment)

Continued, substance first:

Substance: wild-type, HA-tagged C-Proα1(III) (domain or fragment)
stoichiometry N [3]: 3

Substance: FLAG-tagged Ser1169Cys (S2C) C-Proα2(I) (domain or fragment)
stoichiometry N [7]: 3
stoichiometry N [8]: 3

Substance: wild-type, HA-tagged C-Proα1(I) (C-propeptide domain of human Colα1(I)) (from UniProt P02452 1219-1464) (domain or fragment)
stoichiometry N (C-Proα1(I):C-Proα2(I)) [4]: 2
stoichiometry N (C-Proα1(I):C-Proα2(I)) [9]: 2
